Data reported in publication PMC1868598.

B1: human ClC-6 (hClC-6a): AAA-hClC-6 (protein)
parent chain: MAGCRGSLCCCCRWCCCCGERETRTPEELTILGETQEEEDEILPRKDYESLDYDRCINDPYLEVLETMDNKKGRRYEAVKWMVVFAIGVCTGLVGLFVDFFVRLFTQLKFGVVQTSVEECSQKGCLALSLLELLGFNLTFVFLASLLVLIEPVAAGSGIPEVKCYLNGVKVPGIVRLRTLLCKVLGVLFSVAGGLFVEKEGPMIHSGSVVGAGLPQFQSISLRKIQFNFPYFRSDRDKRDFVSAGAAAGVAAAFGAPIGGTLFSLEEGSSFWNQGLTWKVLFCSMSATFTLNFFRSGIQFGSWGSFQLPGLLNFGEFKCSDSDKKCHLWTAMDLGFFVVMGVIGGLLGATFNCLNKRLAKYRMRNVHPKPKLVRVLESLLVSLVTTVVVFVASMVLGECRQMSSSSQIGNDSFQLQVTEDVNSSIKTFFCPNDTYNDMATLFFNPQESAILQLFHQDGTFSPVTLALFFVLYFLLACWTYGISVPSGLFVPSLLCGAAFGRLVANVLKSYIGLGHIYSGTFALIGAAAFLGGVVRMTISLTVILIESTNEITYGLPIMVTLMVAKWTGDFFNKGIYDIHVGLRGVPLLEWETEVEMDKLRASDIMEPNLTYVYPHTRIQSLVSILRTTVHHAFPVVTENRGNEKEFMKGNQLISNNIKFKKSSILTRAGEQRKRSQSMKSYPSSELRNMCDEHIASEEPAEKEDLLQQMLERRYTPYPNLYPDQSPSEDWTMEERFRPLTFHGLILRSQLVTLLVRGVCYSESQSSASQPRLSYAEMAEDYPRYPDIHDLDLTLLNPRMIVDVTPYMNPSPFTVSPNTHVSQVFNLFRTMGLRHLPVVNAVGEIVGIITRHNLTYEFLQARLRQHYQTI
B2: human ClC-6 (hClC-6a): AAAA-hClC-6 (protein)
parent chain: B1 parent chain
B3: human ClC-6 (hClC-6a): ANN-hClC-6: N410A (protein)
parent chain: B1 parent chain
B4: human ClC-6 (hClC-6a): NAN-hClC-6: N422A (protein)
parent chain: B1 parent chain
B5: human ClC-6 (hClC-6a): NNA-hClC-6: N432A (protein)
parent chain: B1 parent chain
B6: human ClC-6 (hClC-6a): AAN-hClC-6: N410A/N422A (protein)
parent chain: B1 parent chain
B7: human ClC-6 (hClC-6a): ANA-hClC-6: N410A/N432A (protein)
parent chain: B1 parent chain
B8: human ClC-6 (hClC-6a): NAA-hClC-6: N422A/N432A (protein)
parent chain: B1 parent chain

Assay: confocal colocalisation with GFP-Rab4, transfected HeLa/COS-1
Conditions: glycan lost; control: wild type
With B1 the localisation_or_trafficking was “no change”.
In the case of B2, the localisation_or_trafficking is reported as “no change”.
With B3 the localisation_or_trafficking was “no change”.
With B4 the localisation_or_trafficking was “no change”.
In the case of B5, the localisation_or_trafficking is reported as “no change”.
For B6, the localisation_or_trafficking was “no change”.
For B7, the localisation_or_trafficking was “no change”.
For B8, the localisation_or_trafficking was “no change”.

Assay: Triton X-100 lysis, sucrose gradient flotation, COS-1
Conditions: glycan lost; control: wild type
With B1 the “other: detergent-resistant membrane association” value was “no change”.
